Columns and labels:
[1] = biological target: T1, NXE’992, chimeric peptide (pyrazole-QRPRL[AIB]S[PipALA]VPFP) (UniProt Q9ULZ1, pyrazole on the N-terminus; AIB at position 6; PipALA at position 8); assay: SPR; pH 6.0
[2] = biological target: T1, NXE’992, chimeric peptide …; assay: SPR; pH 7.5

Kd [1]: 21 nM | Kd [2]: 3.3 nM
B1: human apelin stabilised receptor (NxStaR) (receptor)
chain: MEEGGDFDNYYGADNQSECEYTDWKSSGALIPAIYMLVFLLGTTGNGLVLWTVFRSSREKRRSADIFIASLAVADLTFVVTLPLWAVYTYRDYDWPFGTFFCKLSSYLIFVAMYASVFCLTGLSFDRYLAIVRPVANARLRLRVSGAVATAVLWVLAALLAMPVMVLRTTGDLENTTKVQCYMDYSMVATVSSEWAWEVGLGVSSTMVGFVVPLTIMLTCYFFAAQTIAGHFRKERIEGLRKRRRLLSIIVVLVVTFALCWMPYHLVKTLYMLGSLLHWPCDFDLFLMNIFPYCTCIAYVNSCLNPFLYAFFDPRFRQACTSMLCCGQSRCAGTSHSSSGEKSASYSSGHSQGPGPNMGKGGEQMHEKSIPYSQETLVVD

Reference: article PMC11680790 (2024)
